Test results as given in paper PMC8809985, “Preparation and characterization of a fully human monoclonal antibody specific for human tumor necrosis factor alpha” (Bioengineered, 2021).
“And” between values parts separate entries of the source, which are not always exact repeats. Equal entries are not always repeated.

Biological target: recombinant human tumor necrosis factor alpha (Homo sapiens, UniProt P01375)
Assay: cell-based or functional assay

Sequence of recombinant human tumor necrosis factor alpha (P01375 77-233): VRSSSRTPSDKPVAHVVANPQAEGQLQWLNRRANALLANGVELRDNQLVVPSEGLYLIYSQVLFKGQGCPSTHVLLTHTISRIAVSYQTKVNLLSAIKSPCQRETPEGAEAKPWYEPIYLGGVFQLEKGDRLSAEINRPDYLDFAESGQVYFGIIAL

B1: Haidalimumab (antibody, V domains shown)
VH: EVQLVESGGGLVQPGGSLRLSCAASGFPFSNHWMNWVRQAPGKGLEWVGEIRSKSMNSATHYAESVKGRFTISRDDSKNSLYLQMNSLKTEDTAVYYCARNYYGSTYDHWGQGTLVTVSS
VL: EIVLTQSPDFQSVTPKEKVTITCRASQFVGYSIHWYQQKPDQSPKLLIKYASESRSGVPSRFSGSGSGTDFTLTINSLEAEDAATYYCQQSHSWHFTFGQGTKLEIK
EC50 of neutralisation of the cytotoxicity of rhTNFα (1 ng/mL, with actinomycin D 2.5 μg/mL) on L929 cells, MTT; one of three antibody batches: 0.0195 µg/mL and 0.018 µg/mL and 0.0158 µg/mL
